Key:
[1] = target: Andes virus glycoprotein Gc, wild type (Andes virus (Andes orthohantavirus CHI-7913 isolate))
[2] = target: Andes virus glycoprotein Gc, wild type (Andes virus (Andes orthohantavirus CHI-7913 isolate)); remark: listed apart in the source

Substance Andes virus glycoprotein Gn, wild type has a melting temperature (Tm) of the temperature-induced Gn/Gc dissociation [1] of 37.7 ° C and a melting temperature (Tm) of (Gn/Gc)4 dissociation [2] of 36.3 ° C.
